# Test results: patent publication US20060259987A1
# Where two headings read alike, the source gives them in different places.
# Tests used:
# Assay in all cases: cell-based or functional assay
# [1] = biological target: factor Xa (human) (UniProt P00742)
# [2] = biological target: thrombin (human) (UniProt P00734)
# [3] = biological target: human neutrophil elastase (human) (UniProt P08246)
# [4] = biological target: human neutrophil cathepsin G (human) (UniProt P08311)
# Sequence of human neutrophil cathepsin G (human) (P08311 21-244 limits assumed): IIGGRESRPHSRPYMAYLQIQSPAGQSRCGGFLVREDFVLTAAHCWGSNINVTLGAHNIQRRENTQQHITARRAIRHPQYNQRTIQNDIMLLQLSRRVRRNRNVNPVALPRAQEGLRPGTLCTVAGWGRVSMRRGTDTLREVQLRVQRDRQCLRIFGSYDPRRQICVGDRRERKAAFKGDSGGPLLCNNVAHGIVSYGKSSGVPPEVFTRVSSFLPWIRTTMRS
# Sequence of human neutrophil elastase (human) (P08246 30-247 limits assumed): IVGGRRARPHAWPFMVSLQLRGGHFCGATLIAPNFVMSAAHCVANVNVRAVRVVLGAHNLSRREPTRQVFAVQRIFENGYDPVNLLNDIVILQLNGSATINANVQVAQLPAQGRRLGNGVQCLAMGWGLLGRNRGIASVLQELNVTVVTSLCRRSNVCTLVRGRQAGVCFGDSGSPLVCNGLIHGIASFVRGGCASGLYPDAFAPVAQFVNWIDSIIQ
substance,measurement,setting,value
ATIII S137A (from UniProt P01008 33-464),IC50 fXa/UFH; HCA #4,[1],12 nM
same,rsd. Xa catG; CA #6; stg1 conc 200 (% of no-ATIII control),[1],0
same,rsd. Xa catG; CA #13; stg1 conc 200 (% of no-ATIII control),[1],1
same,rsd. Xa hne; CA #6; stg1 conc 200 (% of no-ATIII control),[1],81
same,rsd. Xa hne; CA #13; stg1 conc 200 (% of no-ATIII control),[1],87
same,rsd. Xa no add; CA #6; stg1 conc 200 (% of no-ATIII control),[1],0
same,rsd. Xa no add; CA #13; stg1 conc 200 (% of no-ATIII control),[1],2
same,IC50 IIa/UFH; HCA #4,[2],13 nM
same,rsd. IIa catG; CA #6; stg1 conc 200 (% of no-ATIII control),[2],0
same,rsd. IIa catG; CA #13; stg1 conc 200 (% of no-ATIII control),[2],1
same,rsd. IIa hne; CA #6; stg1 conc 200 (% of no-ATIII control),[2],81
same,rsd. IIa hne; CA #13; stg1 conc 200 (% of no-ATIII control),[2],89
same,rsd. IIa no add; CA #6; stg1 conc 200 (% of no-ATIII control),[2],0
same,rsd. IIa no add; CA #13; stg1 conc 200 (% of no-ATIII control),[2],4
plasma-derived ATIII (from UniProt P01008 33-464),IC50 fXa/UFH; HCA #4,[1],13 nM
same,rsd. Xa catG; CA #12; stg1 conc 200,[1],1%
same,rsd. Xa catG; CA #17; stg1 conc 3,[1],77%
same,rsd. Xa catG; CA #17; stg1 conc 7,[1],12%
same,rsd. Xa catG; CA #17; stg1 conc 23,[1],-7%
same,rsd. Xa hne; CA #14; stg1 conc 200,[1],101%
same,rsd. Xa hne; CA #17; stg1 conc 23,[1],98%
same,rsd. Xa no add; CA #17; stg1 conc 1,[1],90%
same,rsd. Xa no add; CA #17; stg1 conc 3,[1],75%
same,rsd. Xa no add; CA #17; stg1 conc 23,[1],1%
same,IC50 fXa/UFH; HCA #4,[1]; record 2,13 nM
same,"halflife, min (HNE/hep)",[3],2.9 min
same,"rsd IIa, HNE (CA #14, stg 1 conc 200)",[3],100%
same,"rsd Xa, HNE (CA #14, stg 1 conc 200)",[3],101%
same,"rsd IIa, catG (CA #14, stg 1 conc 200)",[4],1%
ATIII N135A (from UniProt P01008 33-464),IC50 fXa/UFH; HCA #2,[1],17 nM
same,rsd. Xa catG; CA #8; stg1 conc 200,[1],1%
same,rsd. Xa catG; CA #8; stg1 conc 200 (% of no-ATIII control),[1],1
same,rsd. Xa catG; CA #9; stg1 conc 200,[1],1%
same,rsd. Xa catG; CA #9; stg1 conc 200 (% of no-ATIII control),[1],1
same,rsd. Xa hne; CA #8; stg1 conc 200,[1],90%
same,rsd. Xa hne; CA #8; stg1 conc 200 (% of no-ATIII control),[1],90
same,rsd. Xa hne; CA #9; stg1 conc 200,[1],106%
same,rsd. Xa hne; CA #9; stg1 conc 200 (% of no-ATIII control),[1],106
same,rsd. Xa no add; CA #8; stg1 conc 200,[1],1%
same,rsd. Xa no add; CA #8; stg1 conc 200 (% of no-ATIII control),[1],1
same,rsd. Xa no add; CA #9; stg1 conc 200 (% of no-ATIII control),[1],2
same,IC50 fXa/UFH; HCA #2,[1]; record 2,17 nM
same,rsd. IIa catG; CA #8; stg1 conc 200,[2],0%
same,rsd. IIa catG; CA #8; stg1 conc 200 (% of no-ATIII control),[2],0
same,rsd. IIa catG; CA #9; stg1 conc 200,[2],2%
same,rsd. IIa catG; CA #9; stg1 conc 200 (% of no-ATIII control),[2],2
same,rsd. IIa hne; CA #8; stg1 conc 200,[2],90%
same,rsd. IIa hne; CA #8; stg1 conc 200 (% of no-ATIII control),[2],90
same,rsd. IIa hne; CA #9; stg1 conc 200,[2],100%
same,rsd. IIa hne; CA #9; stg1 conc 200 (% of no-ATIII control),[2],100
same,rsd. IIa no add; CA #8; stg1 conc 200,[2],1%
same,rsd. IIa no add; CA #8; stg1 conc 200 (% of no-ATIII control),[2],1
same,rsd. IIa no add; CA #9; stg1 conc 200,[2],2%
same,rsd. IIa no add; CA #9; stg1 conc 200 (% of no-ATIII control),[2],2
human plasma-derived ATIII (from UniProt P01008 33-464),IC50 fXa/UFH; HCA #4,[1],13 nM
same,rsd. Xa catG; CA #12; stg1 conc 200 (% of no-ATIII control),[1],1
same,rsd. Xa catG; CA #17; stg1 conc 3 (% of no-ATIII control),[1],77
same,rsd. Xa catG; CA #17; stg1 conc 7 (% of no-ATIII control),[1],12
same,rsd. Xa catG; CA #17; stg1 conc 23 (% of no-ATIII control),[1],-7
same,rsd. Xa hne; CA #14; stg1 conc 200 (% of no-ATIII control),[1],101
same,rsd. Xa hne; CA #17; stg1 conc 23 (% of no-ATIII control),[1],98
same,rsd. Xa no add; CA #17; stg1 conc 1 (% of no-ATIII control),[1],90
same,rsd. Xa no add; CA #17; stg1 conc 3 (% of no-ATIII control),[1],75
same,rsd. Xa no add; CA #17; stg1 conc 23 (% of no-ATIII control),[1],1
